Reference: article PMC3069404 (The Journal of Biological Chemistry, 2011)

Tests used:
Cse4/H4 = Cse4/H4 (S. cerevisiae, UniProt P36012 1-229; P02309 1-103); experiment: reconstitution of the complex from the separate proteins
Cse4 (recombinant) = Cse4 (recombinant) (S. cerevisiae, UniProt P36012 1-229); experiment: as above
Chain of Cse4 (recombinant) (P36012 whole entry): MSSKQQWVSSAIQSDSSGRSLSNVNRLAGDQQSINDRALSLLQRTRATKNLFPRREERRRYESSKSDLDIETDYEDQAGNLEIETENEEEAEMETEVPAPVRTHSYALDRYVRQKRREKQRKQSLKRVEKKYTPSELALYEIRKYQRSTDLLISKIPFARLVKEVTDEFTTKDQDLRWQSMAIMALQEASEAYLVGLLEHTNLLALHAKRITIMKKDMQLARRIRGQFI

Chain of Cse4/H4 (P36012 whole entry, one chain of several): as the sequence (P36012 whole entry) above

- binding result (Cse4/H4): binds
- binding result (Cse4 (recombinant)): binds
B1: His6-Scm3-Δ25N (recombinant) (domain or fragment, S. cerevisiae, UniProt Q12334 26-223, looked up)
chain: ESGKKSESKIRKHSDCNPVHRVYPPNIEKRKTKKDDGISRPIAERNGHVYIMSKENHIIPKLTDDEVMERHKLADENMRKVWSNIISKYESIEEQGDLVDLKTGEIVEDNGHIKTLTANNSTKDKRTKYTSVLRDIIDISDEEDGDKNDEYTLWANDSEASDSEVDADNDTEEEKDEKLIDADFKKYEAKLSKRILRD
